As usually defined, the Kd is the equilibrium constant for the complex coming apart. Lower therefore signals tighter binding.

The target of data set [1] is T1, FMRP ISO1 (UniProt Q06787 1-632). The data set is described as follows: fluorescence titration (2AP); 150 mM KCl, 1 uM BSA; Fluorescence: 10 mM cacodylic acid pH 6.5, 150 mM KCl, 1 uM BSA, 200 nM RNA; EMSA: 0.5x TBE native gels at 4 C (5 mM KCl for PSD-95 RNAs), incubation at room te. For orientation: In EMSA bound probe runs differently from free probe, usually more slowly.

For data set [2], the target named is T1, FMRP ISO1. Nature of the data set: EMSA; 200 nM RNA, up to 1:2; Fluorescence: 10 mM cacodylic acid pH 6.5, 150 mM KCl, 1 uM BSA, 200 nM RNA; EMSA: 0.5x TBE native gels at 4 C (5 mM KCl for PSD-95 RNAs), incubation at room te.
The target in data set [3] is T1, FMRP ISO1. The data set is described as follows: EMSA; 200 nM RNA, up to 1:6 RNA:protein; Fluorescence: 10 mM cacodylic acid pH 6.5, 150 mM KCl, 1 uM BSA, 200 nM RNA; EMSA: 0.5x TBE native gels at 4 C (5 mM KCl for PSD-95 RNAs), incubation at room te.

Consider GGGAAAAGGGAGGGAUGGG (structured_RNA, A11 replaced by 2-aminopurine) [PSD-95 Q11234 11-2AP], for which the Kd with FMRP ISO1 [1] came to 128 nM.

For UAGGUAGUUUCAUGUUGUUGGG (ssRNA) [miR-196a-1], in the data set with FMRP ISO1 [2], the binding result is given as “no binding”.

In the data set with FMRP ISO1 [1], GGGAGGGAGGGUGGG (structured_RNA, A4 replaced by 2-aminopurine) [PSD-95 Q2 4-2AP] registered a Kd of 195 nM.

As to UCCCUGAGACCCUUUAACCUGUGA (ssRNA) [miR-125a], the binding result with FMRP ISO1 [3] was “no binding”.

For the origin of these results see publication PMC6529005, “FMRP - G-quadruplex mRNA - miR-125a interactions: Implications for miR-125a mediated translation regulation of PSD-95 mRNA”.
